Experimental data taken from article PMC9908306.

Biological target: human glyceraldehyde 3-phosphate dehydrogenase (GAPDH) (human) (UniProt P04406)
Test: cryo-EM structure; single particle analysis of GAPDH on EG-grid, 0.5 mg/ml; D2 symmetry applied

human glyceraldehyde 3-phosphate dehydrogenase (GAPDH), P04406 1-335 (enzyme; other documents disagree on this pair), sequence (P04406 whole entry): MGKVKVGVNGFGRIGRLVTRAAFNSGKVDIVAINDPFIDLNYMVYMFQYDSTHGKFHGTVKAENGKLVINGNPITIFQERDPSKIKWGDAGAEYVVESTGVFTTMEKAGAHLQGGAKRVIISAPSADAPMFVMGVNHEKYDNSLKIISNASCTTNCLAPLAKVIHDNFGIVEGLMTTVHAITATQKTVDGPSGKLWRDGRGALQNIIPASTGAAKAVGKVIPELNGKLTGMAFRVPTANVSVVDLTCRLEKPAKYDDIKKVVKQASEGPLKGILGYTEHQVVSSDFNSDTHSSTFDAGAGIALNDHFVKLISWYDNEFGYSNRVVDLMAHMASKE

stoichiometry N: 4
Substance: human glyceraldehyde 3-phosphate dehydrogenase (GAPDH), P04406 1-335 (enzyme; other documents disagree on this pair)
